Measurements published in patent US6124449, “High affinity TGFβ nucleic acid ligands and inhibitors” (NeXstar Pharmaceuticals, Inc.).
Substitutions are numbered along the chain they refer to.

Key:
TGF-beta1 (hTGF-beta1) [1] = target: T1, TGF-beta1 (hTGF-beta1) (Homo sapiens, UniProt P01137 P01137:279-390); experiment: cell_activity; MLEC assay; conditions: tags: R&D Systems, biotinylated form (NFTG0) used for BIAcore, chain copies: 2
Procedure: Cells were plated at 10^5/mL in 96-well plates in MEM, 10 mM HEPES and 0.2% FBS. Following 4 hours of incubation at 37° C., when cells appeared to attach to the well surface, TGFβ1 was added at 2 pM with or without TGFβ1 ligands that ranged from 0.1 nM to 1 µM. In a second assay performed in order to determine cross-species reactivity, rather than using hTGFβ, a conditioned serum-free medium (CM) was used. CM was conditioned by culturing it in murine 3T3 fibroblast for 48 hours. Before use, this conditioned medium was heat treated at 80° C. for 10 minutes to activate the 3T3 cell derived TGFβ and then it was diluted to 50% and supplemented with 0.2% murine serum. In each assay, hTGFβ1 (or CM) was diluted appropriately in MEM and FBS (0.2% or murine serum) and the ligands were diluted in MEM. TGFβ1 (or CM) and ligand dilutions at 10× the final concentration were premixed at equal volumes and then were added to the cells. Following addition of the TGFβ1 (or CM)-ligand mixture, the cells were incubated for 16–18 hours prior to addition of ^3H-thymidine at 0.25 µCi per well and continued incubation for 7–8 additional hours. After incubation, the cells were washed and harvested with SKATRON filtering units and ^3H-thymidine incorporation in cellular DNA was quantitated by scintillation counting in Ecoscint. Data were plotted and analyzed as described in Park et al. (1990) J. Exp. Med. 171:1073) and Dower et al. (1984) J. Immunol.

TGF-beta1 (hTGF-beta1) [2] = target: T1, TGF-beta1 (hTGF-beta1); experiment: filter; monophasic; conditions: tags: R&D Systems; biotinylated form (NFTG0) used for BIAcore; chain copies: 2
TGF-beta1 (hTGF-beta1) [3] = target: T1, TGF-beta1 (hTGF-beta1); experiment: filter; monophasic, plateau 8%; conditions: tags: R&D Systems; biotinylated form (NFTG0) used for BIAcore; chain copies: 2
TGF-beta1 (hTGF-beta1) [4] = target: T1, TGF-beta1 (hTGF-beta1); experiment: filter; biphasic; Kd1 56.6 nM; P2 2.4%; conditions: tags: R&D Systems; biotinylated form (NFTG0) used for BIAcore; chain copies: 2
TGF-beta1 (hTGF-beta1) [5] = target: T1, TGF-beta1 (hTGF-beta1); experiment: filter; biphasic; Kd1 58.2 nM; P2 1.2%; conditions: tags: R&D Systems; biotinylated form (NFTG0) used for BIAcore; chain copies: 2
TGF-beta1 (hTGF-beta1) [6] = target: T1, TGF-beta1 (hTGF-beta1); experiment: filter; biphasic; Kd1 4.05±1.5 nM; conditions: tags: R&D Systems; biotinylated form (NFTG0) used for BIAcore; chain copies: 2
TGF-beta1 (hTGF-beta1) [7] = target: T1, TGF-beta1 (hTGF-beta1); experiment: filter; biphasic; Kd1 2.82±1.7 nM; conditions: tags: R&D Systems; biotinylated form (NFTG0) used for BIAcore; chain copies: 2
TGF-beta1 (hTGF-beta1) [8] = target: T1, TGF-beta1 (hTGF-beta1); experiment: filter; biphasic; Kd1 3.7±0.6 nM; conditions: tags: R&D Systems; biotinylated form (NFTG0) used for BIAcore; chain copies: 2
TGF-beta1 (hTGF-beta1) [9] = target: T1, TGF-beta1 (hTGF-beta1); experiment: filter; monophasic, plateau about 10%; Table 3 and Table 4 sequences differ slightly; conditions: tags: R&D Systems; biotinylated form (NFTG0) used for BIAcore; chain copies: 2
TGF-beta1 (hTGF-beta1) [10] = target: T1, TGF-beta1 (hTGF-beta1); experiment: filter; biphasic; Kd1 14.0±6.4 nM; conditions: tags: R&D Systems; biotinylated form (NFTG0) used for BIAcore; chain copies: 2
TGF-beta1 (hTGF-beta1) [11] = target: T1, TGF-beta1 (hTGF-beta1); experiment: filter; biphasic; Kd1 3.7±1.5 nM; conditions: tags: R&D Systems; biotinylated form (NFTG0) used for BIAcore; chain copies: 2
TGF-beta1 (hTGF-beta1) [12] = target: T1, TGF-beta1 (hTGF-beta1); experiment: filter; biphasic; Kd1 8.5±1.8 nM; conditions: tags: R&D Systems; biotinylated form (NFTG0) used for BIAcore; chain copies: 2
TGF-beta1 (hTGF-beta1) [13] = target: T1, TGF-beta1 (hTGF-beta1); experiment: filter; biphasic; Kd1 4.4±1.6 nM; conditions: tags: R&D Systems; biotinylated form (NFTG0) used for BIAcore; chain copies: 2
TGF-beta1 (hTGF-beta1) [14] = target: T1, TGF-beta1 (hTGF-beta1); experiment: filter; biphasic; Kd1 13.5±4.2 nM; conditions: tags: R&D Systems; biotinylated form (NFTG0) used for BIAcore; chain copies: 2
TGF-beta1 (hTGF-beta1) [15] = target: T1, TGF-beta1 (hTGF-beta1); experiment: filter; biphasic; Kd1 5.6±2.0 nM; conditions: tags: R&D Systems; biotinylated form (NFTG0) used for BIAcore; chain copies: 2
TGF-beta1 (hTGF-beta1) [16] = target: T1, TGF-beta1 (hTGF-beta1); experiment: filter; biphasic; Kd1 4.2±2.2 nM; conditions: tags: R&D Systems; biotinylated form (NFTG0) used for BIAcore; chain copies: 2

T1 sequence (P01137 279-390, one chain of several): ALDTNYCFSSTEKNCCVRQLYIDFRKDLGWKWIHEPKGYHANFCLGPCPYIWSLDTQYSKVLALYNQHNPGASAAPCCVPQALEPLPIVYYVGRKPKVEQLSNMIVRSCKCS

B1: 40-56 (ssRNA)
RNA: GGGAGGACGAUGCGGUUAGGGCGUCAACACCGCUAUUACAACUUUCGCCUCCCCAGACGACUCGCCCGA
modifications: 2'-F C and U
- Ki (TGF-beta1 (hTGF-beta1) [1]): 7.4 nM

B2: 40-29 (ssRNA)
RNA: GGGAGGACGAUGCGGGACCCUUUUCUGCGAUUCAACUCGUACGUCUUCUCACGUGCAGACGACUCGCCCGA
modifications: 2'-F C and U
- Kd (TGF-beta1 (hTGF-beta1) [2]): 10.9 nM

B3: 40-12 (ssRNA)
RNA: B2 RNA with U23G, C42G, C45U
modifications: 2'-F C and U
- Ki (TGF-beta1 (hTGF-beta1) [1]): 6.88 nM

B4: 40-38 (ssRNA)
RNA: GGGAGGACGAUGCGGAGAUAAUUAUCAGCGGUGGACGGGGUGCCGGUACUGCCGCCAGACGACUCGCCCGA
modifications: 2'-F C and U
- Kd (TGF-beta1 (hTGF-beta1) [2]): 21.8 nM

B5: 30-08 (ssRNA)
RNA: GGGAGGACGAUGCGGCGGAAUUUUUGUUGAGCCGUAUGCCGCCAGACGACUCGCCCGA
modifications: 2'-F C and U
- Kd (TGF-beta1 (hTGF-beta1) [2]): 10.2 nM

B6: 20-04 (ssRNA)
RNA: GGGAGGACGAUGCGGUGUCUUUAGCUUAGGUGAUUCCUUCUGCCGCAGACGACUCGCCCGA
modifications: 2'-F C and U
- Kd (TGF-beta1 (hTGF-beta1) [3]): 0.2 nM

B7: 30-43 (ssRNA)
RNA: B6 RNA with U26C
modifications: 2'-F C and U
- Kd (TGF-beta1 (hTGF-beta1) [2]): 50.5 nM

B8: 30-37 (ssRNA)
RNA: B6 RNA with A23G, U26C
modifications: 2'-F C and U
- Kd (TGF-beta1 (hTGF-beta1) [2]): 2.65 nM

B9: 30-06 (ssRNA)
RNA: B6 RNA with U18C, U31C, G32U, A33U, U35G
modifications: 2'-F C and U
- Kd (TGF-beta1 (hTGF-beta1) [4]): 0.0741 nM

B10: 30-03 (ssRNA)
RNA: B6 RNA with U26C, U27C
modifications: 2'-F C and U
- Kd (TGF-beta1 (hTGF-beta1) [5]): 0.262 nM

B11: 30-10 (ssRNA)
RNA: B6 RNA with U26C
modifications: 2'-F C and U
- Kd (TGF-beta1 (hTGF-beta1) [6]): 0.0755 nM

B12: 40-08 (ssRNA)
RNA: GGGAGGACGAUGCGGCGCAAGGUUACGCCGUCGGACCCUGCUGCCAACAUCCUCCCAGACGACUCGCCCGA
modifications: 2'-F C and U
- Kd (TGF-beta1 (hTGF-beta1) [2]): 15.4 nM

B13: 30-12,24,21,40,41 (ssRNA)
RNA: GGGAGGACGAUGCGGUGUCUAUAGCCUGAUUUUUAAUCUCUGCCGCAGACGACUCGCCCGA
modifications: 2'-F C and U
- Kd (TGF-beta1 (hTGF-beta1) [7]): 0.0608 nM

B14: 40-13 (ssRNA)
RNA: GGGAGGACGAUGCGGAGCAAGGUUACGAGGUCGGACCCUGCUGCCAACAUCCUCCCCAGACGACUCGCCCGA
modifications: 2'-F C and U
- Kd (TGF-beta1 (hTGF-beta1) [2]): 15.4 nM

B15: 40-20 (ssRNA)
RNA: B14 RNA with A16U, G17A, A28C, G29C
modifications: 2'-F C and U
- Kd (TGF-beta1 (hTGF-beta1) [2]): 11.2 nM

B16: 40-40 (ssRNA)
RNA: B14 RNA with A16C, G17C, A28C, G29C, G40A, A49U
modifications: 2'-F C and U
- Kd (TGF-beta1 (hTGF-beta1) [2]): 18 nM

B17: 40-33 (ssRNA)
RNA: B14 RNA with A28C, G29C
modifications: 2'-F C and U
- Kd (TGF-beta1 (hTGF-beta1) [2]): 26.6 nM

B18: 40-44 (ssRNA)
RNA: B14 RNA with A16U, A28C, G29C
modifications: 2'-F C and U
- Kd (TGF-beta1 (hTGF-beta1) [2]): 11.1 nM

B19: 40-14 (ssRNA)
RNA: GGGAGGACGAUGCGGCAUUAUGGCGUCAACAUGCCGGUUUUCGAUUCUCAUUGUCCAGACGACUCGCCCGA
modifications: 2'-F C and U
- Ki (TGF-beta1 (hTGF-beta1) [1]): 3.9 nM

B20: 40-06 (ssRNA)
RNA: GGGAGGACGAUGCGGUUAGGGGCGUCAACACCGCUAUCAUAAUUUUCGCCUUCCCCAGACGACUCGCCCGA
modifications: 2'-F C and U
- Kd (TGF-beta1 (hTGF-beta1) [8]): 0.0016 nM

B21: 40-60 (ssRNA)
RNA: B20 RNA with G19U, C38U, U40C, A42G, U52C
modifications: 2'-F C and U
- Ki (TGF-beta1 (hTGF-beta1) [1]; label: 5'-biotin for BIAcore specificity, proposed double pseudoknot): 0.8 nM

B22: 20-05 (ssRNA)
RNA: GGGAGGACGAUGCGGUGUCUCUACCUUAGGUUGAUUCCUUCUACCGCAGACGACUCGCCCGA
modifications: 2'-F C and U
- Kd (TGF-beta1 (hTGF-beta1) [9]): 0.11 nM

B23: 40-32 (ssRNA)
RNA: GGGAGGACGAUGCGGUUAUGGGCGUCAACACCGCUAUUACAACUUUCGCCUCCAGACGACUCGCCCGA
modifications: 2'-F C and U
- Kd (TGF-beta1 (hTGF-beta1) [10]): 0.005 nM

B24: 40-55 (ssRNA)
RNA: GGGAGGACGAUGCGGUUAGGGGCGUCAACACCGCUAUUCAACCUUCGCUUCCCCAGACGACUCGCCCGA
modifications: 2'-F C and U
- Ki (TGF-beta1 (hTGF-beta1) [1]): 2.9 nM

B25: 40-77 (ssRNA)
RNA: GGGAGGACGAUGCGGUUAUGGGCGUCAACACCGCUAUUACAACUUUCGCCCCCCAGACGACUCGCCCGA
modifications: 2'-F C and U
- Kd (TGF-beta1 (hTGF-beta1) [11]): 0.00173 nM

B26: 30-34 (ssRNA)
RNA: GGGAGGACGAUGCGGUGUCUAUAGCCUUGAUUACAUCAUCUGCCUCAGACGACUCGCCCGA
modifications: 2'-F C and U
- Kd (TGF-beta1 (hTGF-beta1) [2]): 9.5 nM

B27: 40-54 (ssRNA)
RNA: GGGAGGACGAUGCGGUUAGGGGCGUCAACACCGCUAUCAUAACUUUCGCUUCCCCAGACGACUCGCCCGA
modifications: 2'-F C and U
- Kd (TGF-beta1 (hTGF-beta1) [12]): 0.00675 nM

B28: 40-58 (ssRNA)
RNA: B27 RNA with G19U, C38U, U40C, U50C
modifications: 2'-F C and U
- Ki (TGF-beta1 (hTGF-beta1) [1]): 0.9 nM
- Kd (TGF-beta1 (hTGF-beta1) [13]): 0.0053 nM

B29: 40-61,76 (ssRNA)
RNA: B27 RNA with C38U, U40C, C43U, U44C, C52U
modifications: 2'-F C and U
- Kd (TGF-beta1 (hTGF-beta1) [14]): 0.001 nM

B30: 40-16 (ssRNA)
RNA: B27 RNA with C38U, U40C, A42U, U50C
modifications: 2'-F C and U
- Ki (TGF-beta1 (hTGF-beta1) [1]): 0.6 nM

B31: 40-64 (ssRNA)
RNA: B27 RNA with C38U, U40C, C43U, U44C, C49U, U50C, C52U
modifications: 2'-F C and U
- Kd (TGF-beta1 (hTGF-beta1) [15]): 0.0031 nM

B32: 40-19 (ssRNA)
RNA: GGGAGGACGAUGCGGUUAGCGCGAGUUCAACACCGCAUGUGAUUCUUUCGCCUCCCAGACGACUCGCCCGA
modifications: 2'-F C and U
- Ki (TGF-beta1 (hTGF-beta1) [1]): 28 nM
- Kd (TGF-beta1 (hTGF-beta1) [16]): 0.0037 nM

B33: 30-15 (ssRNA)
RNA: GGGAGGACGAUGCGGUUGACCGUUAAGACGGCAUGAUGUGGUCCGCAGACGACUCGCCCGA
modifications: 2'-F C and U
- Kd (TGF-beta1 (hTGF-beta1) [2]): 55.3 nM

B34: 30-22 (ssRNA)
RNA: B33 RNA with G18A, U24A, G40U, G41U
modifications: 2'-F C and U
- Kd (TGF-beta1 (hTGF-beta1) [2]): 2.47 nM

B35: 40-36 (ssRNA)
RNA: GGGAGGACGAUGCGGGUCAAGGUUACGCCGUCGGACCCUACUGCCCCCAGACGACUCGCCCGA
modifications: 2'-F C and U
- Kd (TGF-beta1 (hTGF-beta1) [2]): 41.7 nM
